According to patent publication US20240092908A1 (ZHEJIANG DOER BIOLOGICS, published 2024):

Columns and labels:
[1] = target: fusion protein hPD1-Fc composed of the PD-1 extracellular domain sequence and human IgG1 FC (human); assay: competitive phage ELISA on coated hPD1-Fc; competitor Bio-hPDL1-HSA
Description: After washing 3 times with PBST, 100 μl of Streptavidin-HRP diluted 1:50000 (Jackson ImmunoResearch Inc) was added to each well and incubated at 37° C. for 1 hour. After washing 3 times with PBS, TMB color development working solution (Beijing ComWin Biotech Co., Ltd.) was added and incubated at room temperature for 5 minutes to develop color, then 1M sulfuric acid was added to terminate the reaction and OD450 nm reading was recorded. […] Competitive positive clones were selected for sequencing and duplicate sequences were removed.

[2] = target: T1, Monkey RhPD1-HSA fusion protein (monkey); assay: ELISA, RhPD1-HSA coated 200 ng/well, VHH 1 µg/mL, anti-his detection
T1 construct: also called monkey PD-1
Description: (§1) Monkey RhPD1-HSA fusion protein (SEQ ID No. 30) was coated on plates at 200 ng/well overnight at 4° C. and blocked with 5% skim milk at room temperature for 1 hour. Purified histidine-tagged anti-PD1 single-domain antibody was diluted to 1 μg/mL and incubated at 37° C. for 1 hour with 100 μL per well. After washing with PBST 3 times, a mouse anti-his tag antibody (R&D Systems, Inc) diluted 1:5000 was added at 100 μl/well and incubated at room temperature for 1 hour. After washing with PBST, HRP-Goat anti-mouse IgG antibody (Thermo Scientific) diluted 1:10000 was added at 100 μl/well and incubated at room temperature for 1 hour. After washing with PBST, TMB color developing solution was added for color development and OD value was measured at 450 nm.

[3] = target: T2, mouse mPD1-HSA fusion protein (mouse); assay: ELISA, mPD1-HSA coated 200 ng/well, anti-his detection
T2 construct: also called mouse PD-1
Description: as §1, with “Human hPD1-HSA, mouse mPD1-HSA” for “Monkey RhPD1-HSA fusion protein”, “NO: 57) or HSA (purchased from Sigma) were” for “No. 30) was”, “anti-PD-1” for “anti-PD1”, “solution (Beijing ComWin Biotech Co., Ltd.)” for “solution”

[4] = target: T3, HSA (purchased from Sigma) (human, UniProt P02768 25-609); assay: ELISA, HSA coated 200 ng/well, VHH 1 µg/mL, anti-his detection
T3 construct: Control coat for the HSA part of hPD1-HSA; also called human serum albumin
Description: as §1, with “Human hPD1-HSA, mouse mPD1-HSA” for “Monkey RhPD1-HSA fusion protein”, “NO: 57) or HSA (purchased from Sigma) were” for “No. 30) was”, “anti-PD-1” for “anti-PD1”, “solution (Beijing ComWin Biotech Co., Ltd.)” for “solution”

[5] = target: T4, fusion protein hPD1-HSA composed of a PD1 extracellular domain sequence and a human serum albumin sequence (human); assay: ELISA, hPD1-HSA coated 200 ng/well, VHH 1 µg/mL, anti-his detection
T4 construct: PD-1 extracellular domain fused to HSA; also called Human hPD1-HSA; human PD-1
Description: as §1, with “Human hPD1-HSA, mouse mPD1-HSA” for “Monkey RhPD1-HSA fusion protein”, “NO: 57) or HSA (purchased from Sigma) were” for “No. 30) was”, “anti-PD-1” for “anti-PD1”, “solution (Beijing ComWin Biotech Co., Ltd.)” for “solution”

B1: anti-PD1 single-domain antibody clone 1D3, displayed on recombinant phage (VHH, not shown: large carriers)
VHH: QVQLVESGGGLVQPGGSLNLSCVASGSVFIIDVMAWYRQAPGKQRELVAQIINGGATYYADSVKGRFTISRDDTKTTLYLQMNSLKPDDTAVYYCSAEKFNPYRDSTHFWGQGTQVTVSS
notes: Tested as phage supernatant in the screening ELISAs of Embodiment 2.2
[1]
  binding result: binds

B2: anti-PD-1 single-domain antibody clone 1D3, histidine-tagged, from E. coli (VHH)
VHH: QVQLVESGGGLVQPGGSLNLSCVASGSVFIIDVMAWYRQAPGKQRELVAQIINGGATYYADSVKGRFTISRDDTKTTLYLQMNSLKPDDTAVYYCSAEKFNPYRDSTHFWGQGTQVTVSS
notes: Alpaca VHH expressed in E. coli Rosetta (DE3) from pET32a+, purified on a Ni column; not shown: C-terminal histidine tag
[2]
  OD450 nm: 2.1 OD450 nm
[3]
  binding result: no binding (tested: 1 µg/mL)
[4]
  OD450 nm: 0.029 OD450 nm
[5]
  OD450 nm: 2.1 OD450 nm

B3: anti-PD1 single-domain antibody clone 1A4, displayed on recombinant phage (VHH, not shown: large carriers)
VHH: QVQLVESGGGLVQPGGSLNLSCVASGNVFIIDVMAWYRQAPGKQRELVAQIINGDAKYYVDSVKGRFTISRDNTKTTLYLQMNSLKPDDTAIYYCSAEKFNPYRDSTNFWGQGTQVTVSS
notes: as for B1
[1]
  binding result: binds

B4: anti-PD-1 single-domain antibody clone 1A9, histidine-tagged, from E. coli (VHH)
VHH: QVQLVESGGGLVQPGGSLNLSCVASGNVFIIDVMAWYRQAPGKQRELVAQIINGGATYYADSVKGRFTISRDDTKTTLNLQMNSLKPDDTAVYYCSAEKFNPYRDSTHFWGQGTQVTVSA
notes: as for B2
[2]
  OD450 nm: 2.02 OD450 nm
[3]
  binding result: no binding (tested: 1 µg/mL)
[4]
  OD450 nm: 0.035 OD450 nm
[5]
  OD450 nm: 2.12 OD450 nm

B5: anti-PD-1 single-domain antibody clone 1H1, histidine-tagged, from E. coli (VHH)
VHH: QVQLVESGGGLVQPGGSLNLSCVASGSVFIIDVMAWYRQAPGKQRELVAQIINGGASYYADSVKGRFTISRDNTKTTLFLQMNSLKPADTAVYYCNAEKFNPYRDSTNFWGQGTQVTVSS
notes: as for B2
[2]
  OD450 nm: 2.02 OD450 nm
[3]
  binding result: no binding (tested: 1 µg/mL)
[4]
  OD450 nm: 0.031 OD450 nm
[5]
  OD450 nm: 2.17 OD450 nm

B6: anti-PD1 single-domain antibody clone 2D9, displayed on recombinant phage (VHH, not shown: large carriers)
VHH: QVQLVESGGGLVQPGGSLRLSCAASGSVFIIDVMAWYRQAPGKQRELVAQIINGDAKYYADSVKGRFTISRDNTKTTLYLQMNSLKPDDTAVYYCSAEQFNPYRDSTYFWGQGTQVTVSS
notes: as for B1
[1]
  binding result: binds

B7: anti-PD-1 single-domain antibody clone 2D9, histidine-tagged, from E. coli (VHH)
VHH: QVQLVESGGGLVQPGGSLRLSCAASGSVFIIDVMAWYRQAPGKQRELVAQIINGDAKYYADSVKGRFTISRDNTKTTLYLQMNSLKPDDTAVYYCSAEQFNPYRDSTYFWGQGTQVTVSS
notes: as for B2
[2]
  OD450 nm: 2.1 OD450 nm
[3]
  binding result: no binding (tested: 1 µg/mL)
[4]
  OD450 nm: 0.019 OD450 nm
[5]
  OD450 nm: 2.11 OD450 nm

B8: anti-PD1 single-domain antibody clone 1H1, displayed on recombinant phage (VHH, not shown: large carriers)
VHH: QVQLVESGGGLVQPGGSLNLSCVASGSVFIIDVMAWYRQAPGKQRELVAQIINGGASYYADSVKGRFTISRDNTKTTLFLQMNSLKPADTAVYYCNAEKFNPYRDSTNFWGQGTQVTVSS
notes: as for B1
[1]
  binding result: binds

B9: anti-PD1 single-domain antibody clone 1A9, displayed on recombinant phage (VHH, not shown: large carriers)
VHH: QVQLVESGGGLVQPGGSLNLSCVASGNVFIIDVMAWYRQAPGKQRELVAQIINGGATYYADSVKGRFTISRDDTKTTLNLQMNSLKPDDTAVYYCSAEKFNPYRDSTHFWGQGTQVTVSA
notes: as for B1
[1]
  binding result: binds

B10: anti-PD-1 single-domain antibody clone 2C4, histidine-tagged, from E. coli (VHH)
VHH: QVQLVESGGGLVRPGGSLRLSCAASGSVFIIDVMAWYRQAPGKQRELVAQIISGDHAYYADSVKGRFTISRDDTKTTLYLQMNSLKPDDTAVYYCSAEKFNPYRDSTYFWGQGTQVTVSS
notes: as for B2
[2]
  OD450 nm: 2.03 OD450 nm
[3]
  binding result: no binding (tested: 1 µg/mL)
[4]
  OD450 nm: 0.022 OD450 nm
[5]
  OD450 nm: 2.14 OD450 nm

B11: anti-PD-1 single-domain antibody clone 1A4, histidine-tagged, from E. coli (VHH)
VHH: QVQLVESGGGLVQPGGSLNLSCVASGNVFIIDVMAWYRQAPGKQRELVAQIINGDAKYYVDSVKGRFTISRDNTKTTLYLQMNSLKPDDTAIYYCSAEKFNPYRDSTNFWGQGTQVTVSS
notes: as for B2
[2]
  OD450 nm: 2 OD450 nm
[3]
  binding result: no binding (tested: 1 µg/mL)
[4]
  OD450 nm: 0.021 OD450 nm
[5]
  OD450 nm: 2.13 OD450 nm

B12: anti-PD1 single-domain antibody clone 2C4, displayed on recombinant phage (VHH, not shown: large carriers)
VHH: QVQLVESGGGLVRPGGSLRLSCAASGSVFIIDVMAWYRQAPGKQRELVAQIISGDHAYYADSVKGRFTISRDDTKTTLYLQMNSLKPDDTAVYYCSAEKFNPYRDSTYFWGQGTQVTVSS
notes: as for B1
[1]
  binding result: binds
